The values that follow come from PMC10683372.

The target of series [1] is recombinant wild type α‐thrombin. Kind of series: other fluorescence titration; intrinsic fluorescence of thrombin (50 nM) at 334 nm recorded at increasing peptide concentration; TBS pH 7.4, 0.15 M NaCl, 0.1% PEG-8000, 25°C; one-site model.
Series [2] concerns the target [F]‐Haem(45–57), N^α‐fluoresceinated analogue of the peptide 45–57 (Haemadipsa sylvestris). Kind of series: other fluorescence titration; thrombin (S195A by the methods) or its hirudin complex added to the fluoresceinated peptide (60 nM); excitation 492 nm, emission 516 nm; TBS, 25°C.
Another series concerns the target α‐thrombin (αT). Kind of series: enzyme inhibition (amidolytic activity on S2238).
For series [3], the target named is recombinant wild type α‐thrombin. Kind of series: enzyme inhibition (amidolytic activity on S2238).

Several values for one entry are separate records, joined by “and”; a condition that tells them apart may be missing. Equal values may be shown once. Bridge positions count the residues as written; N and C are the ends.

As a reminder, the Kd is the constant that tells how readily two partners part at equilibrium. For orientation: Ki means a measure of affinity in units of concentration, obtained from inhibition or displacement. As usually defined, the koff is the rate constant with which the complex falls apart. The term kon denotes the second-order rate constant of association.

As for Haem(45–57) (peptide), in series [1], the Kd worked out at 1600 nM. “catalytically inactive αT S195A mutant (enzyme)”: in series [2], the Kd came out at 350 nM. Regarding “full‐length wild‐type haemadin 1–57 (natural protein)”, in the series with α‐thrombin (αT), the inhibitory constant (Ki) is 0.00023 nM and 0.0015 nM. In addition, in series [3], the Ki came to 0.000214 nM, the koff came out at 4.83e-05 s⁻¹ and the association rate constant (kon) was 2.25e+08 M⁻¹ s⁻¹. “H-IRFGMGKVPCPDGEVGYTCDCGEKICLYGQSCNDGQCSGDPKPSSEFEEFEIDEEEK-OH (disulfide 10-19, 21-32, 26-37)” showed a T m higher than hirudin of 22 °C.

In the case of “full‐length haemadin Met5nLeu analogue (natural protein)”, in the series with α‐thrombin (αT), the fold increase of KI(fast) against wild-type haemadin amounted to 2 fold and the fold increase of KI(slow) against wild-type haemadin came out at 2 fold. preformed S195A‐hirudin complex came in with a dissociation constant Kd in series [2] of 12800 nM. In the case of Haem(1–10) wild type (peptide), in the series with α‐thrombin (αT), the inhibitory constant (Ki) came out at 1900 nM.
